Laboratory results as given in PMC11180011.

Test system: T1, DasR (Streptomyces lincolnensis NBRC_13054), ORF:7245352e
T1 sequence: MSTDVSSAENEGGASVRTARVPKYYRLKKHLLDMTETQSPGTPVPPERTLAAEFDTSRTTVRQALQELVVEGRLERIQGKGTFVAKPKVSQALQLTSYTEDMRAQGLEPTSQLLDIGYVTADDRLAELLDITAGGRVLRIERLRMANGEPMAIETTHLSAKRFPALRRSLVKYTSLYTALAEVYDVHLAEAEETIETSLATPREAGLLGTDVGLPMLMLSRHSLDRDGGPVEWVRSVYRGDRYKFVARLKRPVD
Assay: EMSA
Details: EMSA kit, 20 uL, 50 ng/uL Cy5 probe, 6% non-denaturing PAGE; fifth lane with 10 mg/mL salmon sperm DNA; buffer, pH, salt and temperature not given

Sequence	binding
AGCCAGTGGCGATAAGATATCCTCTTTCCCCGGGAGAGCCGGTCCCCGTGGTTGTCGCGACGGATGCTGTGGGTCTTCGGCGGGGTGTTCGCCCTCGGTACGGCACTCTTCGCGCTGATTTCCCTCCTGCGGTCGGATTTCCGCCTCTCCGTGGTCGAGATCGGTGCGGTGCTCGCGATCGTGGGACTGCTGACCTGGGCCGCTTCACGCTGCCAGGCCCGAGACACACCGTGTGTACCGAAGCGACTGCCTGGGACGCTACGGGCCGGATGGACTTATCGCCACTGGCT (double strand) [lmrA promoter]	no binding
AGCCAGTGGCGATAAGATGACTCAAAAGACTCTCCTCACCACACGCGCCACGTAACGGTGGGCACGTGGCGCGCATGACGTTCGTGCAGAAGCAGTTGTCGTTGTGGACGCAGGCACCGGTGGCCCGCTTATTCAGTTGTGAAGTCTGGTTGCGCGACGCGGCGCGCGAAGTCTGTTGCTAGAGCTCTTATCGCCACTGGCT (double strand) [SLINC_6156 promoter]	no binding
AGCCAGTGGCGATAAGAGGGCCTGGATGAGCTGCCTGTCCACCGCGTCCATGCGATCGAAGCCTTCCGATGAAGAGATCCCGAAGTGATGAGAGGTACTGCCCTGTGCCCTGCTGCTCTGTGCCGTGCTGCCCTGTGCCCTACTGCCCTGTGTCCTCTTATCGCCACTGGCT (double strand) [SLINC_4906 promoter]	no binding
AGCCAGTGGCGATAAGGGTTCCTGCATATGTAGCTCGTATAACGGCTGGTCAGAGCCGTTCCAGCACTCTTGACAGGTGTATTGGCCTGGTCCAAGCTCCGGGTACTGGTCTACACCATTGGTCCAGGTCCCGGCTCCATGGGCGGGGGGTGTGGGCATCCCTGAGGAGGCTTATCGCCACTGGCT (double strand) [dasA promoter]	binds
AGCCAGTGGCGATAAGGCTGGGCCTGCCGTTCTCAAGGGGCTGCACGGGGTGTGTGGTTTAGACCAATCCAGCCTCCAATCTAACAGAACCTCGCCCGGCCTCCCAGGTCTGCCGGGTGTCCCGGAGATGACCGGAAACCCTCGGCGAGGGCACCCCTCGCCCCGCGGTCCCTACGTCAGCGAACTTATCGCCACTGGCT (double strand) [nagB promoter]	binds
AGCCAGTGGCGATAAGACGCACGTACGCAACTCCTTTCGGTTTCCCAGGAGTCACTCCCCGGTCCGGACGGGACATGAACTAATTCAGCTACTTATCGGTCAATCTTGAGCGCGTAGTGCCTTCATGTGGTCGGCAATGCCAGGTTCATGACATTCTCGAATGCTCGGCAATCACAGGCCCTACCGGCGGGGAGGACGCTGGTGGAGTTCGAGATCTTATCGCCACTGGCT (double strand) [SLINC_4481 promoter]	no binding
AGCCAGTGGCGATAAGTCACTCGGTCTTCCCGTCCGCCGGACCGCCAACCCCTACCTCGCCAGGGCCCTGGGATAGGCCGGCGGGCGGCGCCGCCCGTGACGCGTAGCTGCCCTGGACGAAGGAGGCCACGCGTCGGCCGCGCCACTCCTGCGGGGCGCCCGGGCCGAGCGCGGTGACCGTGCCGGGCTGCGTAGGCTCACAGACATGGCTGAGATCGGGCTGCGTGCTTATCGCCACTGGCT (double strand) [SLINC_3938 promoter]	no binding
AGCCAGTGGCGATAAGATGACATGTCTCACGGGGGACAGTGTGACCCCAGGACCCGCAAGAGGTCTAGTCCACTCACGTGGTGTAGACCTTAGGGCGGCAATATGTATGACCTTTCGAGAGTTTTTCGATCAGTGATCTTGAGGCGGTTGGCAGTGCGGCGGCGTAGGACTTATCGCCACTGGCT (double strand) [nagK promoter]	binds
